Laboratory results reported in patent publication US20110165265A1, “TRAIL VARIANTS FOR TREATING CANCER” (FUNDACIÓ GENÒMICA (CRG), priority 2007, published 2011).
Values joined by “and” are separate entries in the source; they are usually repeats but may differ in a detail not shown here. Identical values can stand only once.

T1: DcR1 (Homo sapiens, UniProt O14798)
T1 construct: soluble, recombinant DcR1-Ig (sDcR1) and DcR2-Ig (sDcR2); purchased R&D Systems
T1 sequence (O14798 26-236 limits assumed): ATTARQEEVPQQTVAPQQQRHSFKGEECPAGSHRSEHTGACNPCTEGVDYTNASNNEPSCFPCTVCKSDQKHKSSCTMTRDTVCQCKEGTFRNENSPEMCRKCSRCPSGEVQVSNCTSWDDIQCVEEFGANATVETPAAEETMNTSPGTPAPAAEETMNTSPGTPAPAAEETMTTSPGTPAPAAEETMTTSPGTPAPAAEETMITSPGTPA


Experiments:
Colo205 cells [1] = test: DEVDase (caspase) activity in Colo205; type: cell-based, human; conditions: Colo205, 5 mM aspirin 24 h
Experimental: (A) Aspirin induces expression of DR5, DcR1 and DcR2 on the cell surface. Colo205 cells were treated with 5 mM aspirin for 24 h and cell surface expression of DR4, DR5, DcR1 and DcR2 was measured by immunostaining and detected with flow cytometry. The histograms shown include isotype control (black, open peak), untreated Colo205 (grey, closed peak) and aspirin-treated Colo205 (grey, open peak) samples. The histograms are representatives of three independent experiments. […] DEVDase activity was expressed as average nmol AMC released per minute by 1 mg total cellular protein±SD of 3 independent experiments.
In order to determine the cell surface expression of each of the TRAIL receptors on A2780 carcinoma cells, cells were washed twice in PBS containing 1% BSA and then incubated with monoclonal antibodies to DR4, DR5, DcR1 or DcR2 (Alexis) for 40 min. After two wash steps with PBS/BSA, anti-mouse IgG-FITC (Sigma) secondary antibody was added for 30 min. All incubations were carried out on ice. Negative controls contained isotype control antibody. Cells were analyzed by a FacsCalibur flow cytometer. […] Substrate cleavage leading to the release of free AMC was monitored at 37° C. at 60 sec intervals for 25 cycles using a Wallac multilabel counter (excitation 355 nm, emission 460 nm). […]

Colo205 cells [2] = test: Colo205 apoptosis after pre-incubation of ligand with soluble receptor-Ig; type: cell-based, human; conditions: 10 ng/ml ligand; for effect of pre-incubation with sDcR1 on pro-apoptotic activity: sDcR1 up to 2 μg/ml
Experimental: (A) Effect of soluble recombinant DcR1-Ig (sDcR1) on apoptosis induction by TRAIL and DR5-selective variants. […] All graphs are representatives of two independent repeats. (D) Neutralizing antibodies against DcR1 and DcR2 can augment wtTRAIL- but not DR5-variant induced cell death. […] Induction of apoptosis was measured 3 h post-treatment using Annexin V assay. […] The graphs show the average±SEM of three independent experiments.
Induction of cell death was assessed by Annexin V assay 3 h after treatment (FIG. 14), as described above. […] (FIG. 14C). This confirms that the observed differences in blocking efficacy are due to reduced ability of the decoy receptors to bind and inhibit D269H and D269HE195R.

Colo205 cells [3] = test: Kinetics of receptor activation and apoptosis induction, ligand wash-out in Colo205; type: cell-based, human; conditions: Colo205, 30 ng/ml; for incubation time to reach 50% of total efficacy: ligand washed out, Annexin V at 240 min
Experimental: Cell death induction was expressed relative to the percentage of death induced after 240 min without washing out the ligands.
The cells were harvested and cell death was quantified with Annexin V labelling (FIG. 16B), as described above. The data was fitted with an interpolating spline using the software MatlabR.
The cells were then incubated to a total of 180 min in normal growth medium and then the level of cell death was determined (FIG. 16C).

A2780 cells [4] = test: Annexin V apoptosis assay in A2780; type: cell-based, human
A2780 cells [5] = test: Microculture tetrazolium cytotoxicity assay in A2780; type: cell-based, human; conditions: A2780, 96 h
Experimental: The microculture tetrazolium assay, performed as described earlier^36, was used to measure cytotoxicity. […] In cell viability assays assessing combination treatment with cisplatin, the cells were pre-incubated for 4 h (h) with 2.5 μM cisplatin (inhibitory concentration 20%-IC20), before addition of 0-25 ng/ml TRAIL or TRAIL-DR5.

Colo205 cells [6] = test: Cell survival / sensitivity of Colo205; type: cell-based
Experimental: (B) Effect of increasing concentrations of Aspirin on cell viability. (C) Effect of increasing concentrations of 5-Flurouracil on cell viability. (D) Combination therapy with 5 mM Aspirin pre-incubated for 24 h lead to further decreases in cell viability in cells treated with both TRAIL and two of the DR5 mutants. (E) 30 minute incubation of DR5 mutants, were sufficient decrease cell viability which was further augmented when cells were pre-incubated for 24 h with Aspirin. The shorter incubation period lead to a decrease potency of TRAIL alone or in combination with Aspirin. […] (G) 30 min incubation of the DR5 mutant was sufficient to decrease cell viability which was not enhanced by 5-Flurouracil, and once again the decease potency of TRAIL is seen. Proteins are indicated as follows: TRAIL stands for rhTRAIL WT; D269H stands for rhTRAIL carrying mutation D269H; E195R stands for rhTRAIL carrying mutations D269H and E195R; and M1 stands for rhTRAIL carrying mutations D269H, E194I and I196S.
TRAIL-induced cell death as a function of concentration was measured with the MTS assay.

Caski cells = test: Cell survival / sensitivity of Caski; type: cell-based
DcR1 = target: T1, DcR1; conditions: cited from earlier work
A2780-Luc xenografts = test: IP A2780-Luc xenografts, bioluminescence imaging; conditions: for mean signal reduction as to vehicle treated mice: day 16, IP treatment; for light emission (bioluminescent signal): day 16, mean±SEM; for median survival: surrogate endpoint signal ≧3.1×10^8
Experimental: Visualization of response to TRAIL, TRAIL-DR5, cisplatin and to the combination of either ligand with cisplatin by means of bioluminescence imaging. Nude mice were inoculated IP with 2×10^6 A2780-Luc cells. After 5 days treatment was initiated; cisplatin (4 mg/kg IP) or vehicle at day 5 and 12, TRAIL, TRAIL-DR5 (5 mg/kg IP) or vehicle at day 5-10 and 12-16, or a combination of TRAIL or TRAIL-DR5 with cisplatin.
Female nude mice (Hsd:Athymic Nude-nu) were obtained from Harlan Nederland (Horst, The Netherlands) at 6-8 weeks of age (˜21 g). Inoculation was performed after 10 days of acclimatization.
Imaging was conducted with the IVIS 100 series (Xenogen Corporation Alameda, Calif.), composed of a cooled charge-coupled device camera connected to a light tight black chamber. Before in vivo imaging animals were anesthetized with 4% isoflurane and injected IP with D-luciferin (150 mg/kg, Xenogen) reconstituted in sterile PBS. Mice were placed in prone position on a warmed stage (37° C.) in the imaging chamber, and grayscale reference images were obtained under dim illumination. Pseudocolor images representing bioluminescent intensity were acquired with Livinglmage software (version 2.50, Xenogen) 10 and 15 min after D-luciferin injection in complete darkness. These images were superimposed on the grayscale images for analysis with Igor Pro software (version 4.09, WaveMetrics, Lake Oswego, Oreg.). All bioluminescence imaging (BLI) data are depicted in radiance units (photons/sec/cm^2/sr) enabling absolute comparisons between bioluminescent images and represent final data obtained after subtraction of the background signal.

| Molecule | sensitisation by aspirin (Colo205 cells [1]) | effect of pre-incubation with sDcR2 on apoptosis induction (Colo205 cells [2]) | effect of pre-incubation with sDcR1 on pro-apoptotic activity (Colo205 cells [2]) | incubation time to reach 50% of total efficacy (Colo205 cells [3]) | cell survival / viability (A2780 cells [5]) | effect of 5-FU and Aspirin on induced apoptosis (Colo205 cells [6]; Colo205) | cell viability, single agent (Caski cells) | effect of combination with bortezomib (Caski cells) | mean signal reduction as to vehicle treated mice (A2780-Luc xenografts) | light emission (bioluminescent signal) (A2780-Luc xenografts) | median survival (A2780-Luc xenografts) | other results |
| --- | --- | --- | --- | --- | --- | --- | --- | --- | --- | --- | --- | --- |
| wtTRAIL: wild-type soluble recombinant human TRAIL, amino acids 114-281 (SEQ ID NO: 3) (protein, listed as Homo sapiens, TRAIL 114-281) MVRRGRVAAHTGTRGRSNTSSNSKNKAGRKNSWSSRSGHSSNHRNGVHKGYYYSTYRKNTKNDKMVYYKYTSYDMKSARNSCWSKDAYGYSYGGKNDRVSVTNHDMDHASGAVG | increased the sensitivity | able to block apoptosis induction | completely blocked | 60.81 min and 60.8 ± 4.3 min | dose dependent loss of viability | enhanced apoptosis | comparable | increased tumor cell death | 48.8% | 2.3×10^8±3.1×10^7 radiance units | 21 days | effect of pre-incubation with soluble DR5 on pro-apoptotic activity (Colo205 cells [2]): completely block; incubation time for significant pro-caspase-8 processing (Colo205 cells [3]; Western blot): 60 min; cell death (A2780 cells [4]; A2780, highest concentration tested 250 ng/ml): ≤ 24.3±4.5%; Kd (DcR1; surface plasmon resonance, read-out: binding affinity Kd for DcR1): ~25 nM |
| D269HE195R: rhTRAIL (114-281) carrying mutations D269H and E195R; DR5-selective TRAIL variant (protein) MVRERGPQRVAAHITGTRGRSNTLSSPNSKNEKALGRKINSWESSRSGHSFLSNLHLRNGELVIHEKGFYYIYSQTYFRFQERIKENTKNDKQMVQYIYKYTSYPDPILLMKSARNSCWSKDAEYGLYSIYQGGIFELKENDRIFVSVTNEHLIDMHHEASFFGAFLVG | much more pronounced | no complete protection could be achieved | failed to reduce | 3.55 min and 3.6 ± 0.4 min | decreased cell survival more effectively than TRAIL | enhanced apoptosis | comparable | increased tumor cell death | 68.3% | 1.4×10^8±1.3×10^7 radiance units | 21 days | effect of 5 or 10 min pre-incubation with wtTRAIL on induced apoptosis (Colo205 cells [3]): failed to reduce; apoptosis (A2780 cells [4]; A2780, 10 ng/ml, Annexin V): 30.6±2.5%; cell viability, single agent (Colo205 cells [6]; Colo205): significantly less cell viability than TRAIL; sensitivity, single agent comparison (Colo205 cells [6]; Colo205): higher sensitivity; efficient concentration compared to wtTRAIL (Colo205 cells [6]; Colo205, MTS dose-response): efficient at a several fold lower concentration than needed for wtTRAIL; binding capacity to DcR1 (DcR1; earlier work referred to): virtually absent |
